According to patent US20210032312A1 (Janssen / Centocor, published 2021):
Residue numbers refer to the chain shown, from its start.

B1: P283BR9P1363_F6 (designed binder)
chain: LPAPKNLVVSRVTEDSARLSWPEEAVTATSFDSFLIQYQESEKVGEAIVLTVPGSERSYDLTGLKPGTEYTVSIYGVDVKWEGNRPVASNPLSAIFTT
notes: FN3 domain
B2: P283BR9P1363_G5 (designed binder)
chain: B1 chain with P22Y, E23R, E24A, A25T, V26T, T27P, T29P, S30H
notes: FN3 domain
B3: P283HR7P1368_H8 (designed binder)
chain: LPAPKNLVVSRVTEDSARLSWTAPDAAFDSFGITYLDPRNGEAISLNVPGSERSYDLTGLKPGTEYWVVIIGVKGGINSYPLGASFTT
notes: FN3 domain
B4: P283BR9P1363_F2 (designed binder)
chain: LPAPKNLVVSRVTEDSARLSWYRPDNRAGAFDSFLIQYQESEKVGEAIVLTVPGSERSYDLTGLKPGTEYTVSIYGVDVKYDIDSRPISSNPLSAIFTT
notes: FN3 domain
B5: P283DR9P1364_F8 (designed binder)
chain: LPAPKNLVVSRVTEDSARLSWTAPDAAFDSFAIAYPEWPPGEAIVLTVPGSERSYDLTGLKPGTEYFVIIYGVKGGWTSPPLSAIFTT
notes: FN3 domain
B6: P283HR7P1368_F6 (designed binder)
chain: LPAPKNLVVSRVTEDSARLSWTAPDAAFDSFGIGYIEWVHRGEAISLHVPGSERSYDLTGLKPGTEYVVAIVGVKGGEPSTPLGAPFTT
notes: FN3 domain
B7: P283ER9P1365_A1 (designed binder)
chain: B6 chain with G34A, I36V, V39W, H48P, V68N, A70I, V72T, E78I, T81H, P86I
notes: FN3 domain
B8: P283HR7P1368_G10 (designed binder)
chain: B6 chain with G34A, I36V, V39W, H48P, V68W, A70T, V72L, E78I, P79I, P86S
notes: FN3 domain
B9: P283HR7P1368_G1 (designed binder)
chain: LPAPKNLVVSRVTEDSARLSWTAPDAAFDSFLITYWEIEPEGEAIFLGVPGSERSYDLTGLKPGTEYRVQINGVKGGTISYPLFAGFTT
notes: FN3 domain
B10: CD8S396 (designed binder)
chain: LPAPKNLVVSRVTEDSARLSWTAPDAAFDSFYITYPEWPDPGGEAIVLTVPGSERSYDLTGLKPGTEYFVVIYGVKGGEIYSPLSAIFTT
notes: W32Y mutant of P282DR9P1359_C5; the entry holds the mutation
B11: CD8S397 (designed binder)
chain: B10 chain with Y32Q
notes: W32Q mutant of P282DR9P1359_C5; the entry holds the mutation
B12: CD8S398 (designed binder)
chain: B10 chain with Y32S
notes: W32S mutant of P282DR9P1359_C5; the entry holds the mutation
B13: P283DR9P1364_H9 (designed binder)
chain: LPAPKNLVVSRVTEDSARLSWTAPDAAFDSFSISYIEYPEIPGGEAIVLTVPGSERSYDLTGLKPGTEYWVPIWGVKGGIQSWPLSAIFTT
notes: FN3 domain
B14: P283ER9P1365_A7 (designed binder)
chain: LPAPKNLVVSRVTEDSARLSWTAPDAAFDSFYIPYWESEVYGEAIALPVPGSERSYDLTGLKPGTEYQVSIIGVKGGVYSQPLAAIFTT
notes: FN3 domain
B15: P283ER9P1365_H3 (designed binder)
chain: B14 chain with W36R, V40F, Y41R, E66K, Q68R, S70I, V78E, Y79F, A84S
notes: FN3 domain
B16: P283ER9P1365_G1 (designed binder)
chain: B14 chain with W36R, V40F, Y41R, P48S, E66K, Q68R, S70I, V78E, Y79F, A84G
notes: FN3 domain
B17: P283ER9P1365_C1 (designed binder)
chain: B14 chain with P50T
notes: FN3 domain
B18: P283HR7P1368_F10 (designed binder)
chain: B14 chain with W36R, V40F, Y41R, E66K, Q68R, S70I, V78E, Y79F, A84G
notes: FN3 domain
B19: P283ER9P1365_F4 (designed binder)
chain: B14 chain with W36R, V40F, Y41R, E66K, Q68S, S70I, V78E, Y79F, A84G
notes: FN3 domain
B20: P283DR9P1364_F6 (designed binder)
chain: LPAPKNLVVSRVTEDSARLSWTAPDAAFDSFTIAYPEREQDKWGEAIVLTVPGSERSYDLTGLKPGTEYWVIIQGVKGGRPSTPLSAILTT
notes: FN3 domain
B21: P283BR9P1363_G7 (designed binder)
chain: LPAPKNLVVSRVTEDSARLSWSAKKFPRHFDSFLIQYQESEKVGEAIVLTVPGSERSYDLTGLKPGTEYTVSIYGVDVKWEGNRPVASNPLSAIFTT
notes: FN3 domain
B22: P283BR9P1363_G2 (designed binder)
chain: B21 chain with S22P, A23K, K24N, K25Q, F26T, P27N
notes: FN3 domain
B23: P283BR9P1363_F4 (designed binder)
chain: B21 chain with S22E, A23R, K24I, K25V, F26Q, P27T, R28P
notes: FN3 domain
B24: P283BR9P1363_E6 (designed binder)
chain: B21 chain with S22Y, K24R, P27I, R28S, H29P
notes: FN3 domain

Tests used:
[1] = target: T1, cynomolgus monkey CD8 alpha on primary cynomolgus CD8+ T cells (cynomolgus monkey, UniProt P01732 23-235 (human entry)); experiment: flow cytometry, cyno CD8+ T cells
T1 construct: also called Cyno CD8alpha; cyno CD8A
T1 sequence (P01732 other isoform, or with tags, fused parts or gaps limits assumed): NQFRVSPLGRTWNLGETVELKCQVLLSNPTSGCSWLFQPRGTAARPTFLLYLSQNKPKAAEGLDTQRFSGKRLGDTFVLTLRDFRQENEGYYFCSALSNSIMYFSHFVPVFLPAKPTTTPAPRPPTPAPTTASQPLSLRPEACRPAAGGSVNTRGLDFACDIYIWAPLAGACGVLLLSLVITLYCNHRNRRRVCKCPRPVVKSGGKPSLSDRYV

[2] = target: T2, human CD8 alpha (CD8A) on primary human CD8+ T cells (human, UniProt P01732 22-235); experiment: flow cytometry, human CD8+ T cells
T2 construct: whole, on cells; also called hCD8A
T2 sequence (P01732 22-235): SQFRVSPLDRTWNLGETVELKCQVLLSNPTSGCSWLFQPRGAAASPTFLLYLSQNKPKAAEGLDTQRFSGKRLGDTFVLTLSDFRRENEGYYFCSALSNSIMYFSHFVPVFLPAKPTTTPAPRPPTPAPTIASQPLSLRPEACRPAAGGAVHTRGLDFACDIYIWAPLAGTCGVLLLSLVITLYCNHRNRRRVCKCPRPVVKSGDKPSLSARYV

[3] = target: T3, human CD8A-Fc (in house) (human, UniProt P01732 22-182, limits assumed); experiment: SPR (ProteOn), captured hCD8A-Fc
T3 construct: captured by goat anti-human Fc on the ProteOn chip; also called hCD8A-Fc; recombinant human CD8 alpha; not shown: linker/tag and Fc of human IgG1
T3 sequence (P01732 22-182 limits assumed): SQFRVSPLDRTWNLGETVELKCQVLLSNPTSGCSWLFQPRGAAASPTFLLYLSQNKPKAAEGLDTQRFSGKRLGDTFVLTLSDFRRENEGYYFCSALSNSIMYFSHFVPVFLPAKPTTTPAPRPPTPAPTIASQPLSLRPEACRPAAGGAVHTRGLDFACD

[4] = target: T4, human CD8A-Fc (recombinant human CD8 alpha fused to Fc fragment of human IgG1) (human, UniProt P01732 22-182, limits assumed); experiment: SPR, dissociation rate on recombinant CD8 alpha
T4 construct: SPR ligand, captured by goat anti-human Fc; also called hCD8A-Fc; recombinant CD8 alpha; not shown: linker with flag (and polyhistidine) tag and Fc fragment of human IgG1; depends on which of the two constructs was used
T4 sequence (P01732 22-182 limits assumed): as above

| Binder | Cyno T-cell Binding 0.2 uM (MFI) [1] [MFI] | Cyno T-cell Binding 2 uM (MFI) [1] [MFI] | Human T-cell Binding 0.2 uM (MFI) [2] [MFI] | Human T-cell Binding 2 uM (MFI) [2] [MFI] | koff [3] [s⁻¹] | koff [4] [s⁻¹] |
| --- | --- | --- | --- | --- | --- | --- |
| B1 | 4570 | 31600 | 3230 | 10600 | 8.21e-05 |  |
| B2 | 4430 | 24900 | 3310 | 14800 | 0.00014 |  |
| B3 | 4890 | 35900 | 1610 | 22800 | 0.000763 |  |
| B4 | 5280 | 33300 | 3270 | 14500 | 0.000288 |  |
| B5 | 1300 | 36700 | 458 | 6300 | 0.00174 |  |
| B6 | 3540 | 20600 | 3510 | 14300 | 0.00018 |  |
| B7 | 1360 | 9680 | 3860 | 25500 | 0.000467 |  |
| B8 | 2660 | 23800 | 753 | 8120 | 0.00145 |  |
| B9 | 11600 | 69800 | 4940 | 31300 | 0.00215 |  |
| B10 |  |  |  |  |  | 0.000152 |
| B11 |  |  |  |  |  | 0.00066 |
| B12 |  |  |  |  |  | 0.000443 |
| B13 | 4560 | 54600 | 4060 | 32800 | 0.000271 |  |
| B14 | 2960 | 36600 | 1320 | 18500 | 0.000786 |  |
| B15 | 436 | 19600 | 953 | 18000 | 0.000375 |  |
| B16 | 383 | 489 | 318 | 1280 | 0.00367 |  |
| B17 | 1880 | 24000 | 644 | 8000 | 0.00115 |  |
| B18 | 1020 | 16100 | 2660 | 18800 | 0.000165 |  |
| B19 | 2040 | 43200 | 2600 | 24100 | 0.000216 |  |
| B20 | 3160 | 33800 | 1830 | 17200 | 0.001 |  |
| B21 | 3020 | 7210 | 2340 | 4640 | 4.01e-05 |  |
| B22 | 5380 | 15900 | 3230 | 9640 | 0.000122 |  |
| B23 | 4480 | 20200 | 2960 | 11900 | 0.000155 |  |
| B24 | 3720 | 16800 | 2080 | 8240 | 0.00136 |  |
